Source: paper PMC4646227, “Plasticity in PYD assembly revealed by cryo-EM structure of the PYD filament of AIM2” (Cell Discovery, 2015)

B1: His-GFP-tagged AIM2 PYD (M1-P100) (domain or fragment, human, UniProt O14862 1-100, looked up)
chain: MESKYKEILLLTGLDNITDEELDRFKFFLSDEFNIATGKLHTANRIQVATLMIQNAGAVSAVMKTIRIFQKLNYMLLAKRLQEEKEKVDKQYKSVTKPKP
notes: Absent in melanoma 2 (AIM2), human, Pyrin domain, residues M1-P100; Non-cleavable His-GFP tag from a pET28a backbone; A two-residue linker from the BamHI site joins GFP and AIM2 PYD; The protein forms filaments; also called GFP-AIM2^PYD; His-GFP-AIM2^PYD; source: E. coli BL21(DE3), purified (Ni-NTA, SEC; void fractions); not shown: His, N-terminal, kept; GFP (monomeric, M1-T230, A206K), …

Legend:
[1] = molecular target: ASC PYD (M1-Q105, S106C), fluorophore-labelled, MBP removed by TEV (UniProt Q9ULZ3); assay: fluorescence polarisation; apparent; Alexa Fluor 488-labelled MBP-ASC PYD, same procedure, mCherry-NLRP6 PYD added as nucleator
[2] = molecular target: T1, ASC PYD (M1-Q105, S106C), fluorophore-labelled, MBP removed by TEV (UniProt Q9ULZ3 1-106, S106C, Alexa Fluor 568 on the engineered C-terminal Cys (maleimide); Alexa Fluor 488 instead in the experiment with mCherry-NLRP6^PYD); assay: fluorescence polarisation; apparent; Alexa568-labelled MBP-ASC PYD, polymerisation started by TEV removal of MBP; initial rates of ASC PYD filament formation plotted against concentrations of added GFP-AIM2 PYD seeds; conditions: both partners purified
T1 construct: Apoptosis-associated speck-like protein containing a CARD (ASC), Pyrin domain, M1-Q105 followed by an engineered Cys (S106C); also called labeled MBP-ASC^PYD (before cleavage); source: E. coli BL21(DE3), purified (Ni-NTA, SEC) as monomeric MBP fusion, labelled, MBP removed by TEV in the assay

[3] = molecular target: the molecule itself; assay: cryo-EM structure; helical reconstruction of His-GFP-AIM2 PYD filaments; sample in 20 mM HEPES pH 8.0, 150 mM NaCl, 2 mM dithiothreitol

Chain of ASC PYD (M1-Q105, S106C), fluorophore-labelled, MBP removed by TEV (UniProt Q9ULZ3) (Q9ULZ3 1-106 S106C): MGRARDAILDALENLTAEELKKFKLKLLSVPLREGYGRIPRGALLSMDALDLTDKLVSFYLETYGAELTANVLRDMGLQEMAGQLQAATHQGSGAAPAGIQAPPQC
T1 sequence (Q9ULZ3 1-106 S106C): as above

Molecule | Kd [1] [nM] | Kd [2] [nM] | binding result [3]
mCherry-tagged NLRP6 PYD (domain or fragment) | 90 | – | –
B1 | – | ~210 | binds
